Test results as given in US10851403B2, “Cyclin-dependent kinase substrate” (SYSMEX CORPORATION, priority 2017, dated 2020).
No end group written: not given here. *: point of attachment. Biotin = O=C1N[C@H]2[C@H](CS[C@H]2CCCCC(=O)*)N1; Ahx = NCCCCCC(=O)O

Experiments:
CDK4/cyclin D3 = target: T1, CDK4/cyclin D3 (Homo sapiens, UniProt P11802); experiment: CDK reactivity test 3 (Test Example 3); format: biochemical; settings: luminescence intensity when using CDK6 set as 100%, HRP-labeled anti-FITC antibody
T1 construct: purchased SignalChem
Procedure: The reactivity of the polypeptides obtained in Production Example 3 to CDK1, CDK2, CDK4 and CDK6 was examined. Specifically, it was performed as follows.
In a well of a hydrophilic filter plate, 30 μL of a CDK solution (composition: 10 μg/mL CDK/cyclin complex, 1% BSA, triethanolamine buffer solution (pH 7.5)) containing CDK1/cyclin A2, CDK2/cyclin E1, CDK4/cyclin D3 or CDK6/cyclin D3 (all manufactured by SignalChem) and 30 μL of a kinase reaction solution (composition: 4 μg/mL substrate peptide, 50 mM HEPES-NaOH buffer solution (pH 7.4), 15 mM MgCl2, 2 mM ATP-γS) containing any of Comparative Polypeptides 2 to 4 as a substrate peptide were mixed, and the plate was incubated at 37° C. for 1 hour with stirring at 900 rpm using a constant temperature shaker. The reaction solution was recovered by centrifugation (4° C., 2000 rpm, 5 minutes), and 28.6 μL of the reaction solution was dispensed into each well of a PCR plate. […] Luminescence was detected with a luminescence plate reader, and the luminescence intensity was measured. For each polypeptide, the relative value of the luminescence intensity when using other CDKs, in the case where the luminescence intensity when using CDK6 was set as 100%, was calculated.

CDK6/cyclin D3 = target: T2, CDK6/cyclin D3 (Homo sapiens, UniProt Q00534); experiment: CDK reactivity test 6 (Test Example 6), automated immunoassay system HISCL-800; format: biochemical; settings: 0.01 to 10 μg/mL CDK1/A2, CDK2/E1, CDK4/D3 or CDK6/D3; ATP; anti-phospho-antibody; 42° C. 3 minutes
T2 construct: purchased SignalChem
Procedure: The reactivity of the polypeptide (Polypeptide 28) obtained in Production Example 5 to CDK1, CDK2, CDK4 and CDK6 was examined using an automated immunoassay system (manufactured by Sysmex Corporation, HISCL-800). Specifically, it was performed as follows.
In a well of a plate, 30 μL of a CDK solution (composition: 0.01 to 10 μg/mL CDK/cyclin complex, 1% BSA, triethanolamine buffer solution (pH 7.5)) containing CDK1/cyclin A2, CDK2/cyclin E1, CDK4/cyclin D3 or CDK6/cyclin D3 (all manufactured by SignalChem) and 30 μL of a kinase reaction solution (composition: 4 μg/mL substrate peptide, 50 mM HEPES-NaOH buffer solution (pH 7.4), 15 mM MgCl2, 16 mM ATP) containing Polypeptide 28 as a substrate peptide were mixed, and the plate was incubated at 42° C. for 3 minutes. 30 μL (containing 0.15 μg of magnetic St-Ab beads) of a HISCL HBsAg R2 reagent (manufactured by Sysmex Corporation) was added to the well, and the plate was incubated at 42° C. for 2 minutes. The beads in the well were precipitated using a magnet, and the supernatant was removed. Then, a HISCL washing solution (manufactured by Sysmex Corporation) was added, and the beads were washed by shaking several times. […] Luminescence was detected with a luminometer, and the luminescence intensity was measured.

T1 sequence (P11802 whole entry): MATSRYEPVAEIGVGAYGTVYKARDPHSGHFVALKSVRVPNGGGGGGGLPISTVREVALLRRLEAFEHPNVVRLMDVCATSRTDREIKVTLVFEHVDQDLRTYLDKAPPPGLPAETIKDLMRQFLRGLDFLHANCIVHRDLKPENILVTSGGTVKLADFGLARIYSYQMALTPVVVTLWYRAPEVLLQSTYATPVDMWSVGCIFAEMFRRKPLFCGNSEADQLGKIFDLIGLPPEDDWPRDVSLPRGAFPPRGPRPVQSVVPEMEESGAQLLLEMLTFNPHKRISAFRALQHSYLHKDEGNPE
T1 sequence (P30281 whole entry partner): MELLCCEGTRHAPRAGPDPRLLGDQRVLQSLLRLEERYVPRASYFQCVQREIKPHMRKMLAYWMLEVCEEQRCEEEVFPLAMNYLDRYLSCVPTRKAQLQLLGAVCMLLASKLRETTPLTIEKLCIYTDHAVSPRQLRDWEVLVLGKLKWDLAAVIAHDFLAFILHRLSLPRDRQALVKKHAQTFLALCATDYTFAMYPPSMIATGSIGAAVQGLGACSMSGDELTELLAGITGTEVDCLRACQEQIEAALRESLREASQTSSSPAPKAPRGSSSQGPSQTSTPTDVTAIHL
T2 sequence (Q00534 whole entry): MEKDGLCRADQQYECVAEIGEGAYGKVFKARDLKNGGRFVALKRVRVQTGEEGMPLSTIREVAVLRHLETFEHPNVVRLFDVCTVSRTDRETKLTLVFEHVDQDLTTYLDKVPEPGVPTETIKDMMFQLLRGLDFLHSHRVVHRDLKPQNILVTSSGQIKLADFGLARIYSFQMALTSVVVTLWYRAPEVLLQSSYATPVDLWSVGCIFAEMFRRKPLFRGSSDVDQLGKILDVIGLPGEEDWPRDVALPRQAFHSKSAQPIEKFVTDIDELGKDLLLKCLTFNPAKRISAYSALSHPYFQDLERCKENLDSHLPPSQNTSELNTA
T2 sequence (P30281 whole entry partner): as the sequence (P30281 whole entry partner) above

Sequence | relative value of the luminescence intensity (CDK4/cyclin D3) | specific detection of CDK (luminescence intensity versus CDK concentration, FIG. 3) (CDK6/cyclin D3)
PYKISEGLPTPAKMAPRSRI (PYKISEGLPTPAKMAPRSRI-NH2; not fully specified (N-terminus)) [Comparative Polypeptide 4, Comparative Polypeptide 3 with the CDK4 phosphorylation site residue replaced with alanine; N-terminal biotin] | Not detected | –
GAPWSPDPWDDGGGG ({Biotin-Ahx}-GAPWSPDPWDDGGGG) [Polypeptide 28, acidic-residue mutant of Polypeptide 3, N-terminal biotin via aminohexane linker] | – | a substrate capable of specifically detecting CDK6
